Paper PMC9079946, “Enzyme-free ultrasensitive fluorescence detection of epithelial cell adhesion molecules based on a toehold-aided DNA recycling amplification strategy†”

What was measured:
[1] = target: CD86 (UniProt P42081 24-247); experiment: strand a displacement with toehold-aided fluorescence amplification; 100 ng/mL CD86; slight fluorescence change only; 20 mM Tris-HCl, 100 mM NaCl, 10 mM KCl, 10 mM MgCl2, pH 7.5, 37 °C, 30 min; conditions: protein: commercial; partial duplex: 15 nt strand a hybridised to 48 nt aptamer; single-stranded 5' and 3' aptamer overhangs
[2] = target: T1, EpCAM (UniProt P16422 24-265); experiment: strand a displacement with toehold-aided fluorescence amplification; 30 nM aptamer/strand a, 50 ng/mL EpCAM, 10 mM Mg2+; strands b, c, d, e 100 nM; 20 mM Tris-HCl, 100 mM NaCl, 10 mM KCl, 10 mM MgCl2, pH 7.5, 37 °C, 30 min; conditions: protein: commercial; partial duplex: 15 nt strand a hybridised to 48 nt aptamer; single-stranded 5' and 3' aptamer overhangs
T1 sequence: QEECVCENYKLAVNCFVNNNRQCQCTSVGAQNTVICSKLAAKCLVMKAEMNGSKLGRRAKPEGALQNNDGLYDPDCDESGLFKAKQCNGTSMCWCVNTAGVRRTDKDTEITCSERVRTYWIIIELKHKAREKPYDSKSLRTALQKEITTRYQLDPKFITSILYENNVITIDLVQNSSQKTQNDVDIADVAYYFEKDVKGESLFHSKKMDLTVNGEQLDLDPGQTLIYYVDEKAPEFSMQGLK

Chain of CD86 (P42081 24-247): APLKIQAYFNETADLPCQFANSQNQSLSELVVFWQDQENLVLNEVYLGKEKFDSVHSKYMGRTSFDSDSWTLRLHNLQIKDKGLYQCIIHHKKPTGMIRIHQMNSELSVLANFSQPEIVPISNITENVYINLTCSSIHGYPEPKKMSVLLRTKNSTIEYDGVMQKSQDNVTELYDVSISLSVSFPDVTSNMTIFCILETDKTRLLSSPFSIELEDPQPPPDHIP

B1: EpCAM aptamer / strand a duplex (mixed)
DNA 1: CACTACAGAGGTTGCGTCTGTCCCACGTTGTCATGGGGGGTTGGCCTG
DNA 2: AGACGCAACCTCTGT
B1: no binding [1]; binds [2].
